The record followed here is paper PMC4021819, “LIM homeodomain transcription factor Isl1 directs normal pyloric development by targeting Gata3”.

The target in data set [1] is T1, Isl1 C-terminal fragment (LIM domains removed) (UniProt P61372 134-349).
T1 sequence: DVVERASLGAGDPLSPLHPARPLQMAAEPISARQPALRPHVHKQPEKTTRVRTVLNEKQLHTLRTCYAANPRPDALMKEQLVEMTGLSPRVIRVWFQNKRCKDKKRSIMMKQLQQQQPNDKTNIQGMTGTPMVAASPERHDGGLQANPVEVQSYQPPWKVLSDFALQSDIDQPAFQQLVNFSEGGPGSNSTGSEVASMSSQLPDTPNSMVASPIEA
Briefly: EMSA; self-competed by 100x unlabeled; blocked by Isl1 antibody 40.2D6; 40 mM KCl, 15 mM HEPES pH 7.9, 1 mM EDTA, 0.5 mM DTT, 5% glycerol, 50 ng/ul poly(dI-dC), 2 nM probe, 20 ul, room temperature 20 min; 6% native PAGE in 0.5x TBE. The following applies: protein: ivt; label: 5'-biotin (probe); blunt. For orientation: A gel shift assay detects complexes by their altered migration in electrophoresis.

The target in data set [2] is T1, Isl1 C-terminal fragment (LIM domains …). Briefly: competition; 100x unlabeled mutant vs site 1 probe; 40 mM KCl, 15 mM HEPES pH 7.9, 1 mM EDTA, 0.5 mM DTT, 5% glycerol, 50 ng/ul poly(dI-dC), 2 nM probe, 20 ul, room temperature 20 min; 6% native PAGE in 0.5x TBE. Particulars: protein: ivt; blunt.
For data set [3] the target is unchanged. Briefly: competition; 100x unlabeled mutant vs site 3 probe; 40 mM KCl, 15 mM HEPES pH 7.9, 1 mM EDTA, 0.5 mM DTT, 5% glycerol, 50 ng/ul poly(dI-dC), 2 nM probe, 20 ul, room temperature 20 min; 6% native PAGE in 0.5x TBE. The following applies: protein: ivt; blunt.

B1: Gata3-P1 number 3 wild type (dsDNA)
DNA 1: CCTGGAGGGGCCTATTAGATATTTTGTTTT
DNA 2: AAAACAAAATATCTAATAGGCCCCTCCAGG
As to B1, the binding result in data set [1] is on record as “binds”.

B2: Gata3-P1 number 1 mutant (dsDNA)
DNA 1: GTCCTCTTTCCCACGGCCCCACTGTCAGTC
DNA 2: GACTGACAGTGGGGCCGTGGGAAAGAGGAC
As for B2, the binding result in data set [2] is “no binding”.

B3: Gata3-P1 number 1 wild type (dsDNA)
DNA 1: GTCCTCTTTCCCAATTACCCACTGTCAGTC
DNA 2: GACTGACAGTGGGTAATTGGGAAAGAGGAC
B3: in data set [1], the binding result is on record as “binds”.

B4: Gata3-P1 number 3 mutant (dsDNA)
DNA 1: CCTGGAGGGGCCTCGGCGATATTTTGTTTT
DNA 2: AAAACAAAATATCGCCGAGGCCCCTCCAGG
As to B4, the binding result in data set [3] was “no binding”.
